Read-outs that look alike come from different tables or passages of the source.

The results in this text go back to article PMC7509987.

What all share (format): biochemical
Common to all, as to conditions: pH 7.0; 22.0 °C

Substrate in series [1]: O=C(O)c1cc(SSc2ccc([N+](=O)[O-])c(C(=O)O)c2)ccc1[N+](=O)[O-]
Substrate in series [2]: NCC[Se][Se]CCN
Substrate in series [3]: NCC[Se][Se]CCN
The source holds these as a separate data set.

Substrate in series [4]: O=C(O)c1cc(SSc2ccc([N+](=O)[O-])c(C(=O)O)c2)ccc1[N+](=O)[O-]
The source holds these as a separate data set.

B1: mTrxRΔ3 (Mus musculus) (protein)
chain: GGQQSFDLLVIGGGSGGLACAKEAAQLGKKVAVADYVEPSPRGTKWGLGGTCVNVGCIPKKLMHQAALLGGMIRDAHHYGWEVAQPVQHNWKTMAEAVQNHVKSLNWGHRVQLQDRKVKYFNIKASFVDEHTVRGVDKGGKATLLSAEHIVIATGGRPRYPTQVKGALEYGITSDDIFWLKESPGKTLVVGASYVALECAGFLTGIGLDTTVMMRSIPLRGFDQQMSSLVTEHMESHGTQFLKGCVPSHIKKLPTNQLQVTWEDHASGKEDTGTFDTVLWAIGRVPETRTLNLEKAGISTNPKNQKIIVDAQEATSVPHIYAIGDVAEGRPELTPTAIKAGKLLAQRLFGKSSTLMDYSNVPTTVFTPLEYGCVGLSEEEAVALHGQEHVEVYHAYYKPLEFTVADRDASQCYIKMVCMREPPQLVLGLHFLGPNAGEVTQGFALGIKCGASYAQVMQTVGIHPTCSEEVVKLHISKRSGLEPTVTG
On to B1, for which, in series [1], the Km was 12 ± 2.7 µM, the kcat came to 48.3 ± 8.33 s⁻¹ and the kcat/Km stood at 4e+06 M⁻¹ s⁻¹. Besides, in series [2], the Km stood at 1033 ± 114 µM, the kcat amounted to 1.27 ± 0.0667 s⁻¹ and the kcat/Km was determined as 1220 M⁻¹ s⁻¹.

B2: mTrxR-CUG (Mus musculus) (protein)
chain: GGQQSFDLLVIGGGSGGLACAKEAAQLGKKVAVADYVEPSPRGTKWGLGGTCVNVGCIPKKLMHQAALLGGMIRDAHHYGWEVAQPVQHNWKTMAEAVQNHVKSLNWGHRVQLQDRKVKYFNIKASFVDEHTVRGVDKGGKATLLSAEHIVIATGGRPRYPTQVKGALEYGITSDDIFWLKESPGKTLVVGASYVALECAGFLTGIGLDTTVMMRSIPLRGFDQQMSSLVTEHMESHGTQFLKGCVPSHIKKLPTNQLQVTWEDHASGKEDTGTFDTVLWAIGRVPETRTLNLEKAGISTNPKNQKIIVDAQEATSVPHIYAIGDVAEGRPELTPTAIKAGKLLAQRLFGKSSTLMDYSNVPTTVFTPLEYGCVGLSEEEAVALHGQEHVEVYHAYYKPLEFTVADRDASQCYIKMVCMREPPQLVLGLHFLGPNAGEVTQGFALGIKCGASYAQVMQTVGIHPTCSEEVVKLHISKRSGLEPTVTGCUG
In the case of B2, in series [3], the Km is 79 ± 0.7 µM, the kcat turned out to be 62.3 ± 7.5 s⁻¹ and the kcat/Km amounted to 783000 M⁻¹ s⁻¹. Also, in series [4], the Km was determined as 3 ± 0.7 µM, the kcat turned out to be 52.8 ± 7.5 s⁻¹ and the specificity constant (kcat/Km) amounted to 1.83e+07 M⁻¹ s⁻¹.
